From paper PMC3188500

Target: TATA binding protein (TBP) (UniProt P20226)
Assay: fluorescence (FAM/BHQ transcription factor beacon titration)
Conditions: 5 mM MgCl2; no depletant; value stated in text next to ref 35, may come from it; internal BHQ after the T at position 20; 50 mM sodium phosphate pH 7.0, 150 mM NaCl, 5 mM MgCl2, 25 °C; 10 nM labeled TF switch

UniProt P20226, sequence (P20226 whole entry): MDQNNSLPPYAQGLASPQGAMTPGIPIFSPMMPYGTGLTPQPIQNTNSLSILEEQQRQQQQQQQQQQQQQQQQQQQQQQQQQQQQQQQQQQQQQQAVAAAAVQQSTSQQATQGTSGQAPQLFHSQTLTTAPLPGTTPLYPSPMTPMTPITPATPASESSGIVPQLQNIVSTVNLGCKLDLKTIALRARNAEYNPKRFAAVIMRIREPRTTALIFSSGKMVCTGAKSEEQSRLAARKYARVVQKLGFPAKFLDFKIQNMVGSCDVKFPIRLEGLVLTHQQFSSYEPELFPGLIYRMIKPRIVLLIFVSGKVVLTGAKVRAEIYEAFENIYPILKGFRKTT

TACTTTTATATAAATAAGTTGTGATTTTTATATATTTCAC [TFprobe (transcription factor beacon/switch)]
Kd: 45 nM
